Measurements published in patent US20170281788A1.

Molecular target: insulin receptor (IR-B), P06213
Experiment: cell-based or functional assay

potency (activity at the insulin subtype B receptor): 9.9
B1: GLP-1/insulin fusion GLP-DP8 (ligand)
chain: HAEGTFTSDVSSYLEEQAAREFIAWLVRGRGGPEHLCGAHLVDALYLVCGDRGFYFNDRGAGSSSRRGIVDECCHRSCDLRRLENYCN
